T1: cyno IL-6 (cynomolgus monkey, UniProt P79341 28-212, limits assumed)
T1 sequence (looked up): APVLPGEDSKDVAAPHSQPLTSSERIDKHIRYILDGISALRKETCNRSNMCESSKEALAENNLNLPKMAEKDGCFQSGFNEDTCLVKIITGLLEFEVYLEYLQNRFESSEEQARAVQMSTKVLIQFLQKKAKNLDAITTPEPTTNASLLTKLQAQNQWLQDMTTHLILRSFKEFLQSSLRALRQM


Legend:
Assay in all cases: cell-based or functional assay
[1] = biological target: T2, human IL-6 (human, UniProt P05231 30-212)
[2] = biological target: T1, cyno IL-6
[3] = biological target: T3, human TNF-α (human, UniProt P01375 77-233)
T3 sequence (P01375 77-233 limits assumed): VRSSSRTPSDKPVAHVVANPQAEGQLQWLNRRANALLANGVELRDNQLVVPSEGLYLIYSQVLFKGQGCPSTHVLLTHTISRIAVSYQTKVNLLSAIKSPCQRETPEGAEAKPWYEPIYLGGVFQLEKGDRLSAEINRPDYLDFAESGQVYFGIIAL

[4] = biological target: T4, cyno TNF-α (cynomolgus monkey, UniProt P79337 77-233)
T4 sequence (P79337 77-233 limits assumed): as the sequence (P01375 77-233 limits assumed) above, with L37V, R44T, T72N, R138L counted along it

[5] = biological target: T2, human IL-6; remark: listed apart in the source
[6] = biological target: T1, cyno IL-6; remark: listed apart in the source
[7] = biological target: T3, human TNF-α; remark: listed apart in the source
[8] = biological target: T4, cyno TNF-α; remark: listed apart in the source

IC50 hIL-6 TF1 proliferation assay [1] [pM]	Ratio IC50 cyno IL-6/hIL-6 [2] [ratio]	IC50 hTNF-α Nfkb assay [3] [pM]	Ratio IC50 cyno TNFα/hTNFα [4] [ratio]	Ratio IC50 reference anti-IL-6 mAb1/Nb [5] [ratio]	hIL-6 TF1 proliferation assay (IC50, pM) [5] [pM]	cyno IL-6 TF1 proliferation assay (IC50, pM) [6] [pM]	Ratio IC50 reference anti-TNF-α mAb/Nb [7] [ratio]	hTNF-α Nfkb assay (IC50, pM) [7] [pM]	cyno TNF-α NFkb assay (IC50, pM) [8] [pM]	Binder
610	2.8	64.3	4.1	14.8	610	1710	1.43	64	265	F027200925 (bispecific antibody) DVQLVESGGGVVQPGGSLRLSCTASGFTFSTADMGWFRQAPGKGREFVARISGIDGTTYYDEPVKGRFTISRDNSKNTVYLQMNSLRPEDTALYYCRSPRYADQWSAYDYWGQGTLVTVSSGGGGSGGGSEVQLVESGGGVVQPGGSLRLSCAASGIIFSINAMGWYRQAPGKQRELVADIFPFGSTEYADSVKGRFTISRDNAKNTVYLQMNSLRPEDTALYYCHSYDPRGDDYWGQGTLVTVSSGGGGSGGGSEVQLVESGGGVVQPGGSLRLSCAASGFTFRSFGMSWVRQAPGKGPEWVSSISGSGSDTLYADSVKGRFTISRDNSKNTLYLQMNSLRPEDTALYYCTIGGSLSRSSQGTLVTVSSGGGGSGGGSEVQLVESGGGVVQPGGSLRLSCAASGRTFSSYVMGWFRQAPGKEREFVSTINWAGSRGYYADSVKGRFTISRDNAKNTVYLQMNSLRPEDTALYYCAASAGGFLVPRVGQGYDYWGQGTLVKVSSA
73.8	1	85.8	3.2							F027200929 (bispecific antibody) EVQLVESGGGVVQPGGSLRLSCAASGRTFSSYVMGWFRQAPGKEREFVSTINWAGSRGYYADSVKGRFTISRDNAKNTVYLQMNSLRPEDTALYYCAASAGGFLVPRVGQGYDYWGQGTLVTVSSGGGGSGGGSEVQLVESGGGVVQPGGSLRLSCAASGFTFRSFGMSWVRQAPGKGPEWVSSISGSGSDTLYADSVKGRFTISRDNSKNTLYLQMNSLRPEDTALYYCTIGGSLSRSSQGTLVTVSSGGGGSGGGSEVQLVESGGGVVQPGGSLRLSCAASGFSLDYYGVGWFRQAPGKEREGVSCISSSEGDTYYADSVKGRFTISRDNAKNTVYLQMNSLRPEDTALYYCATDLSDYGVCSRWPSPYDYWGQGTLVKVSSGGGGSGGGSEVQLVESGGGVVQPGGSLRLSCTASGFTFSTADMGWFRQAPGKGREFVARISGIDGTTYYDEPVKGRFTISRDNSKNTVYLQMNSLRPEDTALYYCRSPRYADQWSAYDYWGQGTLVKVSS
127	0.4	100	1.8	2.3	127	49	0.67	100	176	F027201060 (bispecific antibody) EVQLVESGGGVVQPGGSLRLSCAASGFTLAYYAIGWFRQAPGKEREGVSCISGSVGTTYYADSVKGRFTISRDNAKNTVYLQMNSLRPEDTALYYCVRSSWFDCGVQGRDLGNEYDYRGQGTLVTVSSGGGGSGGGSEVQLVESGGGVVQPGGSLRLSCAASGFTFRSFGMSWVRQAPGKGPEWVSSISGSGSDTLYADSVKGRFTISRDNSKNTLYLQMNSLRPEDTALYYCTIGGSLSRSSQGTLVTVSSGGGGSGGGSEVQLVESGGGVVQPGGSLRLSCAASGFSLDYYGVGWFRQAPGKEREGVSCISSSEGDTYYADSVKGRFTISRDNAKNTVYLQMNSLRPEDTALYYCATDLSDYGVCSRWPSPYDYWGQGTLVKVSSGGGGSGGGSEVQLVESGGGVVQPGGSLRLSCTASGFTFSTADMGWFRQAPGKGREFVARISGIDGTTYYDEPVKGRFTISRDNSKNTVYLQMNSLRPEDTALYYCRSPRYADQWSAYDYWGQGTLVKVSS
347	0.6	68.5	2	5.3	347	209	0.83	69	139	F027201029 (bispecific antibody) EVQLVESGGGVVQPGGSLRLSCTASGFTFSTADMGWFRQAPGKGREFVARISGIDGTTYYDEPVKGRFTISRDNSKNTVYLQMNSLRPEDTALYYCRSPRYADQWSAYDYWGQGTLVKVSSGGGGSGGGSDVQLVESGGGVVQPGGSLRLSCAASGRTFSNYAMAWFRQAPGKEREFVAVISYAGGRTYYADSVKGRFTISRDNAKNTVYLQMNSLRPEDTALYYCAAVDSPLIATHPRGYDYWGQGTLVTVSSGGGGSGGGSEVQLVESGGGVVQPGGSLRLSCAASGFTFRSFGMSWVRQAPGKGPEWVSSISGSGSDTLYADSVKGRFTISRDNSKNTLYLQMNSLRPEDTALYYCTIGGSLSRSSQGTLVTVSSGGGGSGGGSEVQLVESGGGVVQPGGSLRLSCAASGIIFSINAMGWYRQAPGKQRELVADIFPFGSTEYADSVKGRFTISRDNAKNTVYLQMNSLRPEDTALYYCHSYDPRGDDYWGQGTLVTVSS

The next lines start with the binder.

Binder	IC50 hIL-6 TF1 proliferation assay [1] [pM]	Ratio IC50 cyno IL-6/hIL-6 [2] [ratio]	IC50 hTNF-α Nfkb assay [3] [pM]	Ratio IC50 cyno TNFα/hTNFα [4] [ratio]	Ratio IC50 reference anti-IL-6 mAb1/Nb [5] [ratio]	hIL-6 TF1 proliferation assay (IC50, pM) [5] [pM]	cyno IL-6 TF1 proliferation assay (IC50, pM) [6] [pM]	Ratio IC50 reference anti-TNF-α mAb/Nb [7] [ratio]	hTNF-α Nfkb assay (IC50, pM) [7] [pM]	cyno TNF-α NFkb assay (IC50, pM) [8] [pM]
F027200166 (bispecific antibody) EVQLVESGGGVVQPGGSLRLSCAASGIIFSINAMGWYRQAPGKQRELVADIFPFGSTEYADSVKGRFTISRDNAKNTVYLQMNSLRPEDTALYYCHSYDPRGDDYWGQGTLVTVSSGGGGSGGGSEVQLVESGGGVVQPGGSLRLSCAASGFTLAYYAIGWFRQAPGKEREGVSCISGSVGTTYYADSVKGRFTISRDNAKNTVYLQMNSLRPEDTALYYCVRSSWFDCGVQGRDLGNEYDYRGQGTLVTVSSGGGGSGGGSEVQLVESGGGVVQPGGSLRLSCAASGFTFRSFGMSWVRQAPGKGPEWVSSISGSGSDTLYADSVKGRFTISRDNSKNTLYLQMNSLRPEDTALYYCTIGGSLSRSSQGTLVTVSSGGGGSGGGSEVQLVESGGGVVQPGGSLRLSCTASGFTFSTADMGWFRQAPGKGREFVARISGIDGTTYYDEPVKGRFTISRDNSKNTVYLQMNSLRPEDTALYYCRSPRYADQWSAYDYWGQGTLVKVSS	2250	10	160	3.3						
F027200809 (bispecific antibody) EVQLVESGGGVVQPGGSLRLSCTASGFTFSTADMGWFRQAPGKGREFVARISGIDGTTYYDEPVKGRFTISRDNSKNTVYLQMNSLRPEDTALYYCRSPRYADQWSAYDYWGQGTLVKVSSGGGGSGGGSDVQLVESGGGVVQPGGSLRLSCAASGRTFSNYAMAWFRQAPGKEREFVAVISYAGGRTYYADSVKGRFTISRDNAKNTVYLQMNSLRPEDTALYYCAAVDSPLIATHPRGYDYWGQGTLVTVSSGGGGSGGGSEVQLVESGGGVVQPGGSLRLSCAASGFTFRSFGMSWVRQAPGKGPEWVSSISGSGSDTLYADSVKGRFTISRDNSKNTLYLQMNSLRPEDTALYYCTIGGSLSRSSQGTLVTVSSGGGGSGGGSEVQLVESGGGVVQPGGSLRLSCAASGFSLDYYGVGWFRQAPGKEREGVSCISSSEGDTYYADSVKGRFTISRDNAKNTVYLQMNSLRPEDTALYYCATDLSDYGVCSRWPSPYDYWGQGTLVKVSS	68.2	0.9	141	2.3	1.7	68	61	0.91	141	329
F027200812 (bispecific antibody) DVQLVESGGGVVQPGGSLRLSCAASGRTFSNYAMAWFRQAPGKEREFVAVISYAGGRTYYADSVKGRFTISRDNAKNTVYLQMNSLRPEDTALYYCAAVDSPLIATHPRGYDYWGQGTLVTVSSGGGGSGGGSEVQLVESGGGVVQPGGSLRLSCAASGFTFRSFGMSWVRQAPGKGPEWVSSISGSGSDTLYADSVKGRFTISRDNSKNTLYLQMNSLRPEDTALYYCTIGGSLSRSSQGTLVTVSSGGGGSGGGSEVQLVESGGGVVQPGGSLRLSCAASGFSLDYYGVGWFRQAPGKEREGVSCISSSEGDTYYADSVKGRFTISRDNAKNTVYLQMNSLRPEDTALYYCATDLSDYGVCSRWPSPYDYWGQGTLVKVSSGGGGSGGGSEVQLVESGGGVVQPGGSLRLSCTASGFTFSTADMGWFRQAPGKGREFVARISGIDGTTYYDEPVKGRFTISRDNSKNTVYLQMNSLRPEDTALYYCRSPRYADQWSAYDYWGQGTLVKVSS	72	0.7	206	1.7	1.7	72	54	0.62	206	360
F027200157 (bispecific antibody) EVQLVESGGGVVQPGGSLRLSCTASGFTFSTADMGWFRQAPGKGREFVARISGIDGTTYYDEPVKGRFTISRDNSKNTVYLQMNSLRPEDTALYYCRSPRYADQWSAYDYWGQGTLVKVSSGGGGSGGGSEVQLVESGGGVVQPGGSLRLSCAASGFTFRSFGMSWVRQAPGKGPEWVSSISGSGSDTLYADSVKGRFTISRDNSKNTLYLQMNSLRPEDTALYYCTIGGSLSRSSQGTLVTVSSGGGGSGGGSEVQLVESGGGVVQPGGSLRLSCAASGIIFSINAMGWYRQAPGKQRELVADIFPFGSTEYADSVKGRFTISRDNAKNTVYLQMNSLRPEDTALYYCHSYDPRGDDYWGQGTLVTVSSGGGGSGGGSEVQLVESGGGVVQPGGSLRLSCAASGFTLAYYAIGWFRQAPGKEREGVSCISGSVGTTYYADSVKGRFTISRDNAKNTVYLQMNSLRPEDTALYYCVRSSWFDCGVQGRDLGNEYDYRGQGTLVTVSS	3330	7.1	124	4						

— patent publication US20240301049A1 (Ablynx, published 2024)
